According to US8343503B2, “Contiguous overlapping peptides for treatment of birch pollen allergy” (Anergis S.A., priority 2009, dated 2013):
Like-named read-outs stand apart in the source and are kept apart here. Each block holds one molecule with its values, some of them ahead of it. No end group written: not given here.

Assays:
[1] = system: birch pollen allergic volunteers; settings: human, in vivo
Procedure: (§1) The allergenic response of the peptides was evaluated in vivo by SPT with each of the 5 peptides (AllerT1, AllerT2, AllerT3, AllerT4 and AllerT5) and with the 2 sets (AllerT1-3 and AllerT4-5) on all patients. For each peptide, a 20 μl drop was applied on the forearm at 3 different concentrations (10, 1 and 0.1 μM). […] The weal diameter was evaluated by taking the maximal diameter. SPT was considered positive when the weal diameter was 4 mm or more with an erythema (Hoffmann, A. et al., J Allergy Clin Immunol, 99(2):227-32 (1997). Reactions resulting in a weal diameter below 4 mm, while exceeding 2 mm, were also recorded and classified as “dubious”.

Bet v 1 specific IgE = assay: Competition ELISA: IgE binding of COPs compared to r Bet v 1; set-up: species or system human; settings: for competition with Bet v 1 for IgE binding / residual IgE binding: sera from three allergic patients (data not shown); for competition for IgE binding to coated r Bet v 1: serial dilutions starting at 10 μM pre-incubated with serum of birch pollen allergic subjects
Procedure: Recombinant Bet v 1 at 0.5 μg/ml (r Bet v 1 obtained from Biomay, Austria) was coated overnight on 96-well Nunc Maxisorp® immunoplates (Life Technologies, Basel, Switzerland). After blocking with 1% BSA, ten-fold dilutions of patient serum were added. […] The sera of three allergic patients were selected for high IgE level and clear signal over background and used to test for competition with the peptides. Serial dilutions of each COP, namely AllerT1, AllerT2, AllerT3, AllerT4, AllerT5, AllerT6, AllerT7 and AllerT8, or mixtures of AllerT1-3, AllerT4-5 and AllerT6-8, starting at 10 μM, were pre-incubated with the three selected sera overnight at 4° C. Sera were then incubated on r Bet v 1 coated 96-well plates and residual IgE binding was determined as described above. r Bet v 1 dilutions were used as control for inhibition, whereas BSA was used as control for possible non-specific inhibition.

[2] = system: birch pollen allergic volunteers; assay: Skin prick tests (SPT) of allergic patients; settings: for Positive skin reactions (subjects) / Reactivity lower than defined threshold (dubious) (subjects): 20 volunteers
Procedure: as §1

[3] = system: basophils (IgE-positive cells) in blood from a birch pollen allergic donor; assay: Basophil degranulation test (Basotest); format: cell-based, human; settings: blood of birch pollen allergic donor; r Bet v 1 0.0025-25 nano-molar, COPs starting 10 fold higher; FIG. 4
Procedure: Basotest® (ORPEGEN Pharma Heidelberg, Germany) was used for the quantitative determination of in vitro basophile degranulation. Heparinized blood (100 μl) from a birch pollen allergic donor was first incubated with a stimulation buffer for 20 min at 37° C., and then with or without chemotactic peptide formylmethionylleucylphenylalanine (fMLP) as positive and negative controls respectively. Aliquots of blood were incubated in parallel with 100 μl allergen solution diluted in a saline solution for 20 min at 37° C. A dose response curve was performed with 25, 2.5, 0.25, 0.025 and 0.0025 nano-molar r Bet v 1 as well as starting 10 fold higher with AllerT mixes (AllerT1-T3, AllerT4-5 and AllerT6-8). The activation process was stopped by incubating the blood samples at 4° C. for 10 min. The samples were then incubated for 20 min at +4° C. with 20 μl of phycoerythrin (PE)-conjugated anti-IgE and fluorescein isothyocyanate (FITC)-conjugated anti-gp53 (CD63). Erythrocytes were subsequently removed by the addition of 2 ml of lysing solution (Becton-Dickinson). Cells were washed twice with PBS solution and resuspended in 200 μl of PBS solution and analyzed within 1 h by cytofluorimetry (FASCalibur, BectonDickinson). The basophile population was gated on the PE anti-IgE positive cells and the expression of gp53 (CD63) was analyzed on this population. […]

[4] = dilution 1:1, weal 4 mm or more with erythema

Positive skin reactions (subjects) [1]: 0
Molecule: CC[C@H](C)[C@H](NC(=O)[C@H](C)NC(=O)[C@H](CCC(N)=O)NC(=O)[C@@H]1CCCN1C(=O)[C@H](C)NC(=O)[C@@H](NC(=O)[C@H](CCCCN)NC(=O)[C@@H]1CCCN1C(=O)[C@H](Cc1ccccc1)NC(=O)[C@H](CC(C)C)NC(=O)[C@H](CC(N)=O)NC(=O)[C@H](CC(=O)O)NC(=O)CNC(=O)[C@H](CC(=O)O)NC(=O)[C@H](CC(C)C)NC(=O)[C@@H](NC(=O)[C@H](Cc1ccccc1)NC(=O)[C@H](C)NC(=O)[C@H](CCCCN)NC(=O)[C@H](Cc1ccccc1)NC(=O)[C@H](CC(C)C)NC(=O)[C@H](CCCNC(=N)N)NC(=O)[C@H](C)NC(=O)[C@H](C)NC(=O)[C@@H]1CCCN1C(=O)[C@@H](NC(=O)[C@@H](NC(=O)[C@H](CO)NC(=O)[C@@H](NC(=O)[C@@H](NC(=O)[C@H](CCC(=O)O)NC(=O)[C@@H](NC(=O)[C@H](CCC(=O)O)NC(=O)[C@H](Cc1ccc(O)cc1)NC(=O)[C@H](CC(N)=O)NC(=O)[C@H](Cc1ccccc1)NC(=O)[C@@H](NC(=O)CN)C(C)C)[C@@H](C)O)[C@@H](C)O)[C@@H](C)O)C(C)C)[C@@H](C)CC)[C@@H](C)CC)C(C)C)C(=O)N[C@@H](CO)C(=O)N[C@@H](CO)C(=O)N[C@H](C(=O)N[C@@H](CCC(=O)O)C(=O)N[C@@H](CC(N)=O)C(=O)N[C@H](C(=O)N[C@@H](CCC(=O)O)C(=O)NCC(=O)N[C@@H](CC(N)=O)C(=O)NCC(=O)NCC(=O)O)[C@@H](C)CC)C(C)C [AllerT1]

Positive skin reactions (subjects) [1]: 0
Molecule: VATPDGGSILKISNKYHTKGDHEVKAEQVKASKEMGETLLRAVESYLLAHSDAYN [AllerT3]

competition with Bet v 1 for IgE binding / residual IgE binding (Bet v 1 specific IgE): do not show such binding | competition for IgE binding to coated r Bet v 1 (Bet v 1 specific IgE; FIG. 1): comparable result
B1: AllerT4: SEQ ID NO: 4, aa 2-85 of SEQ ID 9 (Bet v 1) contiguous overlapping peptide (peptide)
chain: GVFNYETETTSVIPAARLFKAFILDGDNLFPKVAPQAISSVENIEGNGGPGTIKKISFPEGFPFKYVKDRVDEVDHTNFKYNYS
Positive skin reactions (subjects) [2, 4]: 0 | Reactivity lower than defined threshold (dubious) (subjects) ([2]; dilution 1:1, weal below 4 mm): 0 | Positive skin reactions (subjects) ([2]; dilution 1:10): 0 | Reactivity lower than defined threshold (dubious) (subjects) ([2]; dilution 1:10): 0 | Positive skin reactions (subjects) ([2]; dilution 1:100): 0 | Reactivity lower than defined threshold (dubious) (subjects) ([2]; dilution 1:100): 1

IC50 (Bet v 1 specific IgE; depending on the serum of the donor, FIG. 1, read-out: concentration competing with IgE present in the sera (50% inhibition)): 0.0001 to 10 µM
B2: r Bet v 1: Purified recombinant Bet v 1, birch pollen major allergen, purchased from BIOMAY; SEQ ID 9, Swissprot P15494 (protein)
chain: MGVFNYETETTSVIPAARLFKAFILDGDNLFPKVAPQAISSVENIEGNGGPGTIKKISFPEGFPFKYVKDRVDEVDHTNFKYNYSVIEGGPIGDTLEKISNEIKIVATPDGGSILKISNKYHTKGDHEVKAEQVKASKEMGETLLRAVESYLLAHSDAYN
basophil degranulation (IgE-positive cells expressing CD63) [3]: concentration dependent manner | SPT result ([2]; birch pollen extract 100,000 SQ, recombinant Bet v 1 1 μM): positive in all volunteers | Positive skin reactions (subjects) [2, 4]: 20 | Positive skin reactions (subjects) ([2]; dilution 1:10): 16 | Positive skin reactions (subjects) ([2]; dilution 1:100): 2

competition for IgE binding to coated r Bet v 1 (Bet v 1 specific IgE; FIG. 1): no competition
B3: AllerT2: SEQ ID NO: 2, aa 48-118 of SEQ ID 9 (Bet v 1) contiguous overlapping peptide (peptide)
chain: NGGPGTIKKISFPEGFPFKYVKDRVDEVDHTNFKYNYSVIEGGPIGDTLEKISNEIKIVATPDGGSILKIS
Positive skin reactions (subjects) [2, 4]: 0 | Reactivity lower than defined threshold (dubious) (subjects) ([2]; dilution 1:1, weal below 4 mm): 0 | Positive skin reactions (subjects) ([2]; dilution 1:10): 0 | Reactivity lower than defined threshold (dubious) (subjects) ([2]; dilution 1:10): 0 | Positive skin reactions (subjects) ([2]; dilution 1:100): 0 | Reactivity lower than defined threshold (dubious) (subjects) ([2]; dilution 1:100): 0

competition with Bet v 1 for IgE binding / residual IgE binding (Bet v 1 specific IgE): do not show such binding | competition for IgE binding to coated r Bet v 1 (Bet v 1 specific IgE; FIG. 1): comparable result
B4: AllerT5: SEQ ID NO: 5, aa 65-160 of SEQ ID 9 (Bet v 1) contiguous overlapping peptide (peptide)
chain: FKYVKDRVDEVDHTNFKYNYSVIEGGPIGDTLEKISNEIKIVATPDGGSILKISNKYHTKGDHEVKAEQVKASKEMGETLLRAVESYLLAHSDAYN
Positive skin reactions (subjects) [2, 4]: 0 | Reactivity lower than defined threshold (dubious) (subjects) ([2]; dilution 1:1, weal below 4 mm): 1 | Positive skin reactions (subjects) ([2]; dilution 1:10): 0 | Reactivity lower than defined threshold (dubious) (subjects) ([2]; dilution 1:10): 0 | Positive skin reactions (subjects) ([2]; dilution 1:100): 0 | Reactivity lower than defined threshold (dubious) (subjects) ([2]; dilution 1:100): 0
